Reference: PMC3592466 (Nucleic Acids Research, 2012)

Target: T1, BcgI A subunit, E53A mutant (UniProt Q07605 1-637, E53A)
T1 sequence (looked up): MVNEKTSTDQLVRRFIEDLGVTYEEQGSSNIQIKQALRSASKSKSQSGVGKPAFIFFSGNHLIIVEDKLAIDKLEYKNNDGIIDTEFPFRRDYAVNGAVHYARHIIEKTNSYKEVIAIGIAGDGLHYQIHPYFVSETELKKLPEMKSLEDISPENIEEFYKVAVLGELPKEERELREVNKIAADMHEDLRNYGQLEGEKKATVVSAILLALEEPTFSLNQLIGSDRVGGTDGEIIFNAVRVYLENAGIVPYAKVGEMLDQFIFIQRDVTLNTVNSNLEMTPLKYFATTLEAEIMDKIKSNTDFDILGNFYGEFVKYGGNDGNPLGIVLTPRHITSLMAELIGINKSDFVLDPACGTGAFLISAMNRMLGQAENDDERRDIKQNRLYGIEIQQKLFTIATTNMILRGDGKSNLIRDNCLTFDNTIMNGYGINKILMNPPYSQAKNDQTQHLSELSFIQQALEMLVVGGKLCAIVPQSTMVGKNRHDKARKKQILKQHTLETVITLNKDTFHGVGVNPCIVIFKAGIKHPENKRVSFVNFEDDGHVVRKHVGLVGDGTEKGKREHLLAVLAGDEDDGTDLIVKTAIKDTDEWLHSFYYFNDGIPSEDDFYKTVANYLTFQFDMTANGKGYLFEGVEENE
Test: native MS

- binding result: binds
B1: BcgI B subunit (natural protein, UniProt Q07606 1-341, looked up)
chain: MNNLIKYSTFLISDLFDVVIGKTIDGNKAQRNENGTPYITRKATRNGFEFMIDGEKEKLYSGKLPVITIGNETSKPFVQEFHFFTGTKVNICIPKLDLNRNHLLYITTMIENATKMFSYSYTINSTRLKSLKILLPIKGEEPDWDYMNTYISKILSNMEKNFDVQQNDGVSDLRSLKDLSWSQFKMDEIFSINSGVRLTKADMKPGNIPFIGATDSNNGITEFTSSTNASFDGNVLGVNYNGSVVENFYHPYKAVFSDDVKRLKLKNYPNNKHVLLFMKVVILQQKVKYAYGYKFNATRMKEQIILLPTKADGTPDYEFMEQYMMRMENKVVGRTTEKEAD
